# Patent US20110152173A1 (EMERGENT PRODUCT DEVELOPMENT SEATTLE, published 2011)
# T1: recombinant human sIL-6R (human, UniProt P08887 20-358, limits assumed)
# T1 construct: Bought; also called human soluble IL6R
# T1 sequence (looked up): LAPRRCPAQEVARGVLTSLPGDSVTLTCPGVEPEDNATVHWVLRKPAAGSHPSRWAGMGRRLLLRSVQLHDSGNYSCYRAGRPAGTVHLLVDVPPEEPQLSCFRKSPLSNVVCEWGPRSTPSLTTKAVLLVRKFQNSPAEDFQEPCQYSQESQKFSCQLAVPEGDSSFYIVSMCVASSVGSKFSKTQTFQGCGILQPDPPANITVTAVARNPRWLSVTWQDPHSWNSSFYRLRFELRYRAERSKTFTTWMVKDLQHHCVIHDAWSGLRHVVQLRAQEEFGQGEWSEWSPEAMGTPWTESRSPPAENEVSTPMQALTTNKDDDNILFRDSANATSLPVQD
# Key:
# [1] = molecular target: T2, recombinant human TNF-α (human, UniProt P01375 77-233); assay: ELISA: Xceptor captured on anti-human IgG-Fc, rhTNF-α added, detected with anti-TNF-α-biotin
# T2 construct: also called rhTNFα
# T2 sequence (P01375 77-233 limits assumed): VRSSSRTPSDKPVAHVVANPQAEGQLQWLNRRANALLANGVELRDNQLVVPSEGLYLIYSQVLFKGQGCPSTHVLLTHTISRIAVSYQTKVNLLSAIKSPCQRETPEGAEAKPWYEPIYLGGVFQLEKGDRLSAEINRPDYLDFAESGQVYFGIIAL
# Procedure: Added to each well of a 96-well plate was 100 μl goat anti-human IgG-Fc (ICN Pharmaceuticals, Costa Mesa, Calif.) from a 2 μg/ml solution in PBS, pH 7.2-7.4. The plate was covered, and incubated overnight at 4° C. After washing four times with PBS-T, 250 μl Blocking buffer was added to each well, the plate was covered, and incubated at room temperature for 2 hours (or at 4° C. overnight). […] After washing the plate five times with PBS-T, 100 μl per well horse radish peroxidase-conjugated streptavidin (Jackson ImmunoResearch, West Grove, Pa.) diluted 1:1,000 in Working buffer was added, the plate was covered, and incubated at room temperature for 30 minutes. After washing the plate six times with PBS-T, 100 μl per well 3,3,5,5-tetramentylbenzidine (TMB) substrate solution (Pierce, Rockford, Ill.) was added for about 3 to 5 minutes and then the reaction was stopped with 50 μl Stop buffer (1N H₂SO₄) per well. The absorbance of each well was read at 450 nm.
# [2] = molecular target: T1, recombinant human sIL-6R; assay: ELISA: Xceptor captured on anti-human IgG-Fc, sIL-6R added, detected with anti-IL-6R-biotin
# Procedure: Added to each well of a 96-well plate was 100 μl goat anti-human IgG-Fc (ICN Pharmaceuticals, Costa Mesa, Calif.) from a 2 μg/ml solution in PBS, pH 7.2-7.4. The plates were covered, and incubated overnight at 4° C. After washing four times with PBS-T, 250 μl Blocking buffer (PBS-T with 3% BSA or 10% normal goat serum) was added to each well, the plate was covered, and incubated at room temperature for 2 hours (or at 4° C. overnight). […] After washing the plate five times with PBS-T, added in duplicate wells was 100 μl/well recombinant human sIL-6R(R&D Systems) from a […] solution in Working buffer, the plate was covered, and incubated at room temperature for about 1 to 2 hours. After washing the plate five times with PBS-T, added 100 μl/well anti-human IL-6R-biotin (R&D Systems) from a 100 ng/ml solution in Working buffer, the plate was covered, and incubated at room temperature for about 1 to 2 hours. After washing the plate five times with PBS-T, 100 μl per well horse radish peroxidase-conjugated streptavidin (Zymed, San Francisco, Calif.) diluted 1:4,000 in Working buffer was added, the plate was covered, and incubated at room temperature for 30 minutes. After washing the plate six times with PBS-T, 100 μl per well 3,3,5,5-tetramentylbenzidine (TMB) substrate solution (Pierce, Rockford, Ill.) was added for about 3 to 5 minutes and then the reaction was stopped with 50 μl Stop buffer (1N H₂SO₄) per well. The absorbance of each well was read at 450 nm.
# [3] = molecular target: T2, recombinant human TNF-α; assay: ELISA: plate-coated HIL-6, Xceptor, then rhTNF-α, detected with anti-TNF-α-biotin (simultaneous binding)
# Procedure: The plate was covered, and incubated overnight at 4° C. […] The absorbance of each well was read at 450 nm.
# [4] = molecular target: TNFα (Biacore analyte of Example 12) (UniProt P01375 77-233, limits assumed); assay: SPR (Biacore T100): binder captured by anti-human Fc, TNFα injected
# Sequence of TNFα (Biacore analyte of Example 12) (P01375 77-233 limits assumed): as above
# From the text: The unoccupied sites of the activated surface were blocked by ethanolamine. […] At the end of the cycle, the surface was regenerated gently using 3M MgCl₂ which dissociates protein bound to anti hFc capture antibody. […] The value of this parameter was then fixed and the data from the low density surface were used to calculate the association rate constant, kₐ and the Rₘₐₓ. This strategy maximizes signal-to-noise for the dissociation phase data and reduces the mass transport limitation for the association phase data. BIAevaluation software was used to perform these analyses.
binding result [1],binding result [2],binding result [3],Kd [4],koff [4],kon [4],Binder
–,no binding,–,3.1 pM,0.00014 s⁻¹,4.7e+07 M⁻¹ s⁻¹,"TRU(XT6)-1002 (Fc fusion, also called Xceptor TNFRSF1B::anti-HIL6) LPAQVAFTPYAPEPGSTCRLREYYDQTAQMCCSKCSPGQHAKVFCTKTSDTVCDSCEDSTYTQLWNWVPECLSCGSRCSSDQVETQACTREQNRICTCRPGWYCALSKQEGCRLCAPLRKCRPGFGVARPGTETSDVVCKPCAPGTFSNTTSSTDICRPHQICNVVAIPGNASMDAVCTSTSPTRSMAPGAVHLPQPVSTRSQHTQPTPEPSTAPSTSFLLPMGPSPPAEGSTGDTGEPKSSDKTHTCPPCPAPEAAGAPSVFLFPPKPKDTLMISRTPEVTCVVVDVSHEDPEVKFNWYVDGVEVHNAKTKPREEQYNSTYRVVSVLTVLHQDWLNGKAYACAVSNKALPAPIEKTISKAKGQPREPQVYTLPPSRDELTKNQVSLTCLVKGFYPSDIAVEWESNGQPENNYKTTPPVLDSDGSFFLYSKLTVDKSRWQQGNVFSCSVMHEALHNHYTQKSLSLSPGQRHNNSSLNTRTQKARHSPNSEVQLLESGGGLVQPGGSLRLSCAASGFTFSFYQMHWVRQAPGKGLEWVSGIYPSGGYTKYADSVKGRFTISRDNSKNTLYLQMNSLRAEDTAVYYCARDLGYGSSWYYFDYWGQGTLVTVSSGGGGSGGGGSGGGGSQSALTQPASVSGSPGQSITISCSGTDSDVGGYNHVSWYQQHPGKAPKLIIYDVDHRPSGISNRFSGSKSGNTASLTISGLQAEDEADYYCSSYRSGSTYVFGTGTKVTVL"
binds,no binding,–,–,–,–,"TRU(XT6)-1058 (Fc fusion, not trimmed; also called Xceptor TNFRSF1B::anti-HIL6) LPAQVAFTPYAPEPGSTCRLREYYDQTAQMCCSKCSPGQHAKVFCTKTSDTVCDSCEDSTYTQLWNWVPECLSCGSRCSSDQVETQACTREQNRICTCRPGWYCALSKQEGCRLCAPLRKCRPGFGVARPGTETSDVVCKPCAPGTFSNTTSSTDICRPHQICNVVAIPGNASMDAVCTSTSPTRSMAPGAVHLPQPVSTRSQHTQPTPEPSTAPSTSFLLPMGPSPPAEGSTGDTGEPKSSDKTHTCPPCPAPEAAGAPSVFLFPPKPKDTLMISRTPEVTCVVVDVSHEDPEVKFNWYVDGVEVHNAKTKPREEQYNSTYRVVSVLTVLHQDWLNGKAYACAVSNKALPAPIEKTISKAKGQPREPQVYTLPPSRDELTKNQVSLTCLVKGFYPSDIAVEWESNGQPENNYKTTPPVLDSDGSFFLYSKLTVDKSRWQQGNVFSCSVMHEALHNHYTQKSLSLSPGQRHNNSSLNTRTQKARHSPNSEVQLLESGGGLVQPGGSLRLSCAASGFTFSMYTMHWVRQAPGKGLEWVSWISPSGGWTKYADSVKGRFTISRDNSKNTLYLQMNSLRAEDTAVYYCAVSPWGGPFDYWGQGTLVTVSSGGGGSGGGGSGGGGSQDIQMTQSPSTLSASVGDRVTITCRASQSISSWLAWYQQKPGKAPKLLIYKASTLESGVPSRFSAGGSGTEFTLTISSLQPDDFGTYYCQQYNSYSLTFGGGTKVEII"
binds,no binding,–,–,–,–,"TRU(X6T)-1019 (Fc fusion, also called Xceptor in the reverse orientation) EVQLLESGGGLVQPGGSLRLSCAASGFTFSWYLMHWVRQAPGKGLEWVSGIWPSGGHTLYADSVKGRFTISRDNSKNTLYLQMNSLRAEDTAVYYCAREPLLWFGELSYNWFDPWGQGTLVTVSSGGGGSGGGGSGGGGSQDIQMTQSPSSVSASVGDRVTITCRASQGISSWLAWYQQKPGKAPKLLIYAASSLQSGVPSRFSGSGSGTDFTLTISSLQPEDFATYYCQQANSFPLTFGGGTKVEIKTGEPKSSDKTHTCPPCPAPEAAGAPSVFLFPPKPKDTLMISRTPEVTCVVVDVSHEDPEVKFNWYVDGVEVHNAKTKPREEQYNSTYRVVSVLTVLHQDWLNGKAYACAVSNKALPAPIEKTISKAKGQPREPQVYTLPPSRDELTKNQVSLTCLVKGFYPSDIAVEWESNGQPENNYKTTPPVLDSDGSFFLYSKLTVDKSRWQQGNVFSCSVMHEALHNHYTQKSLSLSPGQRHNNSSLNTRTQKARHSPNSLPAQVAFTPYAPEPGSTCRLREYYDQTAQMCCSKCSPGQHAKVFCTKTSDTVCDSCEDSTYTQLWNWVPECLSCGSRCSSDQVETQACTREQNRICTCRPGWYCALSKQEGCRLCAPLRKCRPGFGVARPGTETSDVVCKPCAPGTFSNTTSSTDICRPHQICNVVAIPGNASMDAVCTSTSPTRSMAPGAVHLPQPVSTRSQHTQPTPEPSTAPSTSFLLPMGPSPPAEGSTGD"

# Further lines, the binder ahead of its results:
Binder,binding result [1],binding result [2],binding result [3],Kd [4],koff [4],kon [4]
"TRU(XT6)-1019 (Fc fusion, not trimmed; also called Xceptor TNFRSF1B::anti-HIL6) LPAQVAFTPYAPEPGSTCRLREYYDQTAQMCCSKCSPGQHAKVFCTKTSDTVCDSCEDSTYTQLWNWVPECLSCGSRCSSDQVETQACTREQNRICTCRPGWYCALSKQEGCRLCAPLRKCRPGFGVARPGTETSDVVCKPCAPGTFSNTTSSTDICRPHQICNVVAIPGNASMDAVCTSTSPTRSMAPGAVHLPQPVSTRSQHTQPTPEPSTAPSTSFLLPMGPSPPAEGSTGDTGEPKSSDKTHTCPPCPAPEAAGAPSVFLFPPKPKDTLMISRTPEVTCVVVDVSHEDPEVKFNWYVDGVEVHNAKTKPREEQYNSTYRVVSVLTVLHQDWLNGKAYACAVSNKALPAPIEKTISKAKGQPREPQVYTLPPSRDELTKNQVSLTCLVKGFYPSDIAVEWESNGQPENNYKTTPPVLDSDGSFFLYSKLTVDKSRWQQGNVFSCSVMHEALHNHYTQKSLSLSPGQRHNNSSLNTRTQKARHSPNSEVQLLESGGGLVQPGGSLRLSCAASGFTFSWYLMHWVRQAPGKGLEWVSGIWPSGGHTLYADSVKGRFTISRDNSKNTLYLQMNSLRAEDTAVYYCAREPLLWFGELSYNWFDPWGQGTLVTVSSGGGGSGGGGSGGGGSQDIQMTQSPSSVSASVGDRVTITCRASQGISSWLAWYQQKPGKAPKLLIYAASSLQSGVPSRFSGSGSGTDFTLTISSLQPEDFATYYCQQANSFPLTFGGGTKVEIK",binds,no binding,–,–,–,–
"TRU(XT6)-1006 (Fc fusion, not trimmed; also called Xceptor TNFRSF1B::HIL6) LPAQVAFTPYAPEPGSTCRLREYYDQTAQMCCSKCSPGQHAKVFCTKTSDTVCDSCEDSTYTQLWNWVPECLSCGSRCSSDQVETQACTREQNRICTCRPGWYCALSKQEGCRLCAPLRKCRPGFGVARPGTETSDVVCKPCAPGTFSNTTSSTDICRPHQICNVVAIPGNASMDAVCTSTSPTRSMAPGAVHLPQPVSTRSQHTQPTPEPSTAPSTSFLLPMGPSPPAEGSTGDTGEPKSSDKTHTCPPCPAPEAAGAPSVFLFPPKPKDTLMISRTPEVTCVVVDVSHEDPEVKFNWYVDGVEVHNAKTKPREEQYNSTYRVVSVLTVLHQDWLNGKAYACAVSNKALPAPIEKTISKAKGQPREPQVYTLPPSRDELTKNQVSLTCLVKGFYPSDIAVEWESNGQPENNYKTTPPVLDSDGSFFLYSKLTVDKSRWQQGNVFSCSVMHEALHNHYTQKSLSLSPGQRHNNSSLNTRTQKARHSPNSEVQLLESGGGLVQPGGSLRLSCAASGFTFSQYNMIWVRQAPGKGLEWVSWISSSGGTEYADSVKGRFTISRDNSKNTLYLQMNSLRAEDTAVYYCAKDRGYGSGSYGAYDAFDIWGQGTMVTVSSGGGGSGGGGSGGGGSQDIQMTQSPSSLSASVGDRVTITCQTSQSIDRYLNWYQQKAGEAPKLLIYAASSLQSGVPSRFSGSGSGTDFTLTISSLQPEDFASYYCQQSYRTPRTFGQGTKVEIK",–,–,binds,–,–,–
